Tests used:
hANGPTL3(17-169)-mFc [1] = biological target: T1, hANGPTL3(17-169)-mFc (human); experiment: cell-based or functional assay
T1 chain: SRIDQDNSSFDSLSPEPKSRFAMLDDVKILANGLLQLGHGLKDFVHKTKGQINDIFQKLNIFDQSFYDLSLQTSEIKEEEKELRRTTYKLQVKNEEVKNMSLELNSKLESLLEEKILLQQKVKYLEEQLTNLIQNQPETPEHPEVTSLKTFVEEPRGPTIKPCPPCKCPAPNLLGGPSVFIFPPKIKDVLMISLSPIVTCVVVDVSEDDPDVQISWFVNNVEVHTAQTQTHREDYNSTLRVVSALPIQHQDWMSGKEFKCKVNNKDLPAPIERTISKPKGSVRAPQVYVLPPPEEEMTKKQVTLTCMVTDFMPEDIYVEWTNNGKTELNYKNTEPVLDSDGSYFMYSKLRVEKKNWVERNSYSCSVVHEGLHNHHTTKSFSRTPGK

mANGPTL3(17-240)-His [2] = biological target: T2, mANGPTL3(17-240)-His (Mus musculus, UniProt Q9R182 17-240); experiment: cell-based or functional assay
T2 sequence: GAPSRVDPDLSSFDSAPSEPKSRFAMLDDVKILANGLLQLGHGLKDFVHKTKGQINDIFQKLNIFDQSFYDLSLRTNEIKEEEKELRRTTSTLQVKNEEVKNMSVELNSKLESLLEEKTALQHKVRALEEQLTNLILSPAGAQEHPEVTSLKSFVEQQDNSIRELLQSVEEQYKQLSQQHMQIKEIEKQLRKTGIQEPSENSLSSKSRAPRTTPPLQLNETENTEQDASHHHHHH

hANGPTL3(17-169)-mFc [3] = biological target: T1, hANGPTL3(17-169)-mFc; experiment: cell-based or functional assay
hANGPTL3(17-170)-His [4] = biological target: T3, hANGPTL3(17-170)-His (human, UniProt Q9Y5C1 17-170); experiment: cell-based or functional assay
T3 sequence: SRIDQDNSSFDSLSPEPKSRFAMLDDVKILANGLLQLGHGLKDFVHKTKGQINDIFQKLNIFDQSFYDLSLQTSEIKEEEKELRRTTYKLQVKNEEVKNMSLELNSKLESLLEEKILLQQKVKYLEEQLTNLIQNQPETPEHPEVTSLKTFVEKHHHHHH

MfANGPTL3(17-170)-mmH [5] = biological target: T4, MfANGPTL3(17-170)-mmH (Macaca fascicularis); experiment: cell-based or functional assay
T4 chain: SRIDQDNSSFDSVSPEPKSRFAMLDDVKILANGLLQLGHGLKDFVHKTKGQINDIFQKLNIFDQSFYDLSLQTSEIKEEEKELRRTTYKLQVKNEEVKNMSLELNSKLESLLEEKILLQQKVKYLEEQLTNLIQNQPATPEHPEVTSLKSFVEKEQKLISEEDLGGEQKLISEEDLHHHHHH

mANGPTL3(17-455)-His = biological target: T5, mANGPTL3(17-455)-His (Mus musculus, UniProt Q9R182 17-455); experiment: cell-based or functional assay
T5 sequence: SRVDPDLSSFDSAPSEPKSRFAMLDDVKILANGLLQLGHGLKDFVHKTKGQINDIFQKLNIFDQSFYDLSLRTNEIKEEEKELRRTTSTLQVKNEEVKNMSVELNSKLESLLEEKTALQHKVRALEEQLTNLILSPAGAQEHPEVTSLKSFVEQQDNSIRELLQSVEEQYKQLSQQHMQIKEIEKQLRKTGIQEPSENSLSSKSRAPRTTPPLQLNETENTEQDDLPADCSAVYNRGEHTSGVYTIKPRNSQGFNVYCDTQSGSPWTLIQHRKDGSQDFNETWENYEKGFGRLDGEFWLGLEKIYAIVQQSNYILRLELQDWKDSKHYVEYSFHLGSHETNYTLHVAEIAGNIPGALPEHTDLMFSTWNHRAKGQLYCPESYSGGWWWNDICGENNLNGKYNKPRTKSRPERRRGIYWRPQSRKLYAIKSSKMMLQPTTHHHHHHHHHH

mANGPTL3(17-240)-His [6] = biological target: T2, mANGPTL3(17-240)-His; experiment: cell-based or functional assay; remark: listed apart in the source
hANGPTL3(17-460)-His = biological target: T6, hANGPTL3(17-460)-His (human, UniProt Q9Y5C1 17-460); experiment: SPR Biacore, antigen captured, 25C, pH 7.2, PBSP
T6 construct: Bought protein (R&D Systems); also called full-length mature human ANGPTL3 with a C-terminal decahistidine tag; Human ANGPTL3 (17-460)-His
T6 sequence: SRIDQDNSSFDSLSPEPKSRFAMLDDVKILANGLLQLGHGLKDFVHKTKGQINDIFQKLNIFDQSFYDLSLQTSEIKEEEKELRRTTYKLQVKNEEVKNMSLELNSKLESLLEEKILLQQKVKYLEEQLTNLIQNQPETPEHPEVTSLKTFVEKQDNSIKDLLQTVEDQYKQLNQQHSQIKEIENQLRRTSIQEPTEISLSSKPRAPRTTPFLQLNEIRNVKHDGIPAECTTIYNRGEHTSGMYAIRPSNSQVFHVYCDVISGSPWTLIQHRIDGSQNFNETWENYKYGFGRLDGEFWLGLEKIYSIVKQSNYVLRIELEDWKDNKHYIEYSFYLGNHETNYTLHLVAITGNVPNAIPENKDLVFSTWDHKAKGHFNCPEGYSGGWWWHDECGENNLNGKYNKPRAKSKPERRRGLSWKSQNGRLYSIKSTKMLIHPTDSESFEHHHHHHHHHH
Protocol: (§1) All kinetic binding experiments were performed at 25° C. or 37° C. on a BIACORE™ T200 label-free molecular interaction instrument (GE Healthcare) using a CM5 sensor chip. Briefly, an antigen capture surface was generated by covalently coupling either an anti-mouse IgG-specific antibody (anti-mFc; GE Healthcare; catalog #BR-1008-38) or an anti-pentahistidine-specific antibody (Qiagen; catalog #34660) to the surface of a CM5 sensor chip using a standard amine coupling method.

hANGPTL3(17-170)-His [7] = biological target: T3, hANGPTL3(17-170)-His; experiment: SPR Biacore, antigen captured, 25C, pH 7.2, PBSP
Protocol: as §1

MfANGPTL3(17-170)-mmH [8] = biological target: T4, MfANGPTL3(17-170)-mmH; experiment: SPR Biacore, antigen captured, 25C, pH 7.2, PBSP
Protocol: as §1

- IC50, LPL bioassay, 80 nM constant hANGPTL3(17-169)-mFc (hANGPTL3(17-169)-mFc [1]): 0.033 µM
- IC50, LPL bioassay, 500 nM constant mANGPTL3(17-240)-His (mANGPTL3(17-240)-His [2]): 0.064 µM
- IC50 (nM), LPL bioassay, 80 nM constant ANGPTL3 (hANGPTL3(17-169)-mFc [3]): 21 nM
- IC50 (nM), LPL bioassay, 100 nM constant ANGPTL3 (hANGPTL3(17-170)-His [4]): 2.9 nM
- IC50 (nM), LPL bioassay, 500 nM constant ANGPTL3 (MfANGPTL3(17-170)-mmH [5]): 10 nM
- IC50 (nM), LPL bioassay, 80 nM constant ANGPTL3 (mANGPTL3(17-455)-His): 14 nM
- IC50 (nM), LPL bioassay, 500 nM constant ANGPTL3 (mANGPTL3(17-240)-His [6]): 31 nM
- Kd (hANGPTL3(17-460)-His): 0.00067 µM
- koff (hANGPTL3(17-460)-His): 0.000402 s⁻¹
- kon (hANGPTL3(17-460)-His): 599000 M⁻¹ s⁻¹
- t1/2 (hANGPTL3(17-460)-His): 28.8 min
- Kd (hANGPTL3(17-170)-His [7]): 0.00109 µM
- koff (hANGPTL3(17-170)-His [7]): 0.0011 s⁻¹
- kon (hANGPTL3(17-170)-His [7]): 1e+06 M⁻¹ s⁻¹
- t1/2 (hANGPTL3(17-170)-His [7]): 10.5 min
- Kd (MfANGPTL3(17-170)-mmH [8]): 0.00037 µM
- koff (MfANGPTL3(17-170)-mmH [8]): 0.000538 s⁻¹
- kon (MfANGPTL3(17-170)-mmH [8]): 1.45e+06 M⁻¹ s⁻¹
- t1/2 (MfANGPTL3(17-170)-mmH [8]): 21.5 min
B1: H4H1276S (antibody, IgG4, V domains shown)
VH: EVQLVESGGGVIQPGGSLRLSCAASGFTFDDYAMNWVRQGPGKGLEWVSAISGDGGSTYYADSVKGRFTISRDNSKNSLYLQMNSLRAEDTAFFYCAKDLRNTIFGVVIPDAFDIWGQGTMVTVSS
VL: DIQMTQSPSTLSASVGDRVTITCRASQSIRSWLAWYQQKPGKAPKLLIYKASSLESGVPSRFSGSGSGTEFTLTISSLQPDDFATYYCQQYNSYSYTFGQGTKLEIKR

Source: patent US20150197564A1 (Regeneron, published 2015)
